Data as given in patent publication US20140113288, “METHODS OF IDENTIFYING RISK OF PREECLAMPSIA AND PREGNANCY-RELATED DISORDERS” (Academia Sinica, published 2014).
Substitutions are numbered along the chain they refer to.

B1: HtrA4-GBS probe (dsDNA)
DNA 1: GTGAGCTTTCTTATCAGTCTGCCCTCATTGTCGGTTTT
DNA 2: AAAACCGACAATGAGGGCAGACTGATAAGAAAGCTCAC
B2: HtrA4-GBSmt probe (dsDNA)
DNA 1: B1 DNA 1 with C22A, C23A, C26A, A27C
DNA 2: B1 DNA 2 with T12G, G13T, G16T, G17T

Assays:
GCM1 (GCMa) [1] = molecular target: T1, GCM1 (GCMa) (Homo sapiens, UniProt Q9NP62 Q9NP62:1-436); assay: EMSA; supershifted by anti-GCM1 antibody; 5% non-denaturing gel; settings: tags: C-terminal FLAG (GCM1-FLAG); label: radiolabel
T1 sequence: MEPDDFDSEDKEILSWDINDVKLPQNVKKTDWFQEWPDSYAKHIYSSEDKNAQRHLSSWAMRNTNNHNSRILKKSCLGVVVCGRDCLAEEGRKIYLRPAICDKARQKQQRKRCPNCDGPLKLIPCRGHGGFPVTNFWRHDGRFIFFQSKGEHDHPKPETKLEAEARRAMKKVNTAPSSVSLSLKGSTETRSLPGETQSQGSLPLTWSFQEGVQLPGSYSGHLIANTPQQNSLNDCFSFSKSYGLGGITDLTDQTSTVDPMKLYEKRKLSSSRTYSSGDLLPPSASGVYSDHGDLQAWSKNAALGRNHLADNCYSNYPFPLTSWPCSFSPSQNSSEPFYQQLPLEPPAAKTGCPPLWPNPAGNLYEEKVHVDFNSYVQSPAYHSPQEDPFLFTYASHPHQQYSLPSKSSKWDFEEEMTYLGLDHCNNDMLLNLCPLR
Protocol: (§1) BeWo cells stably expressing HA-GCM1 (BeWo31) (36) were treated with or without 50 μM forskolin for 24 hours before being subjected to ChIP assay using normal mouse serum or HA mAb (Sigma, St. Louis, Mo.). The immunopurified genomic fragments were amplified by ligation-mediated PCR and the resulting amplicons were fragmented and labeled with terminal labeling kit (Affymetrix, Santa Clara, Calif.) according to the manufacturer's instructions. The chips of Human promoter 1.0R array (Affymetrix) were hybridized with the labeled amplicons, followed by data analysis using the Partek software package (St. Louis, Mo.). Furthermore, RefSeq mapping data were collected from the UCSC Genome Browser's RefFlat table (The UCSC genome browser database: update 2007). The closest RefSeq 5′ end for each ChIP region was identified, regardless of whether the cluster was upstream or downstream of the 5′ end. The primer sequences for ChIP analysis of the interaction between GCM1 and HtrA4-GBS in BeWo cells are 5′-[…]-3′ (SEQ ID NO:4) and 5′-GTCTCTAGCC CTACCCG-3′ (SEQ ID NO:5). On the other hand, analysis of direct interaction between GCM1 and HtrA4-GBS was performed by electrophoretic mobility shift assay (EMSA) as previously described (22). […] The reaction mixtures were analyzed by electrophoresis on 5% non-denaturing polyacrylamide gels. […]

GCM1 (GCMa) [2] = molecular target: T1, GCM1 (GCMa); assay: EMSA; GBS mutated; settings: tags: C-terminal FLAG (GCM1-FLAG); label: radiolabel
Protocol: as §1

Row | Binder | binding result (GCM1 (GCMa) [1]) | binding result (GCM1 (GCMa) [2])
1 | B1 | binds | –
2 | B2 | – | no binding
